For one assay, the target named is T1, Parkin (endogenous) (human, UniProt O60260 1-465).
T1 construct: Endogenous protein immunoprecipitated from cell lysates; also called Endogenous Parkin
The experiment in a line: not told (data not shown).

Another assay has as its target T2, Cdh1 (human, UniProt Q9UM11 1-496, limits assumed).
T2 construct: Protein in cell lysate, co-immunoprecipitation
Description: IP-immunoblot of transfected Parkin domain constructs, mitotic cells (FIG. 10A). In general terms: In western blotting, separated proteins are transferred to a membrane and probed.

Another assay concerns the target T3, Cdc20 (human, UniProt Q12834 1-499).
T3 construct: Protein in cell lysate, co-immunoprecipitation
Description: IP-immunoblot of transfected cells with or without nocodazole (FIG. 9K).

T2 sequence (Q9UM11 whole entry): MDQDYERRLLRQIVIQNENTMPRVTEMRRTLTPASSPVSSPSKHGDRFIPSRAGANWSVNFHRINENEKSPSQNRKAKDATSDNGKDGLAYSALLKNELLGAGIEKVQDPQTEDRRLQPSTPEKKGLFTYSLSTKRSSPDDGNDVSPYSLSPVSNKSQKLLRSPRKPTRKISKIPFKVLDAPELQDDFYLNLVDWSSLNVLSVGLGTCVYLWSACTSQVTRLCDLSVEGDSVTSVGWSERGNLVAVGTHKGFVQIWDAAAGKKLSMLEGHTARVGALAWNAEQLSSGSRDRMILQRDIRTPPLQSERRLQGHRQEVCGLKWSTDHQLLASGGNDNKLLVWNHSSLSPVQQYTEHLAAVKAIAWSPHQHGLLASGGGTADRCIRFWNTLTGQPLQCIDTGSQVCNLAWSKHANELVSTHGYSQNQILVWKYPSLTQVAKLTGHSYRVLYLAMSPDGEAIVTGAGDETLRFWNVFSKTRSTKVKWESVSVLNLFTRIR
T3 sequence (Q12834 whole entry): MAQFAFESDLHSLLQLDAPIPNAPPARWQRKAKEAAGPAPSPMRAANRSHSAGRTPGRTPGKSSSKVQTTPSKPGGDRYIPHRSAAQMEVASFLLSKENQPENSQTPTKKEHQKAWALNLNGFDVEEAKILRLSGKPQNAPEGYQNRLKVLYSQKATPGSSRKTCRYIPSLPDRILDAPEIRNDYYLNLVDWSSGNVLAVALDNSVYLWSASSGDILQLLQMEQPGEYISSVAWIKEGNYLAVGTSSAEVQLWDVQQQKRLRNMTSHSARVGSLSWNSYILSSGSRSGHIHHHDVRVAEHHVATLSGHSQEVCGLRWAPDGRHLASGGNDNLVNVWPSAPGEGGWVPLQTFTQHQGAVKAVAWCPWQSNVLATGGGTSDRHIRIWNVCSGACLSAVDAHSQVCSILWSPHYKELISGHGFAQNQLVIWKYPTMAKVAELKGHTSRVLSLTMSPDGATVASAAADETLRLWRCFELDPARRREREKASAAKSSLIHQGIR
Description for Cdc20: (H) Cells were transfected with the indicated plasmids, and then treated with nocodazole. Cell lysates were then blotted with the indicated antibodies. […] (J and K) Cells were treated with chemical (J) or transfected with indicated constructs (K).
Description for Cdh1: Cells were transfected with the indicated plasmids, and mitotic cells were collected for immunoprecipitation (IP)-immunoblot analysis (right).

B1: UbcH10 (enzyme, UniProt O00762 2-179, looked up)
chain: ASQNRDPAATSVAAARKGAEPSGGAARGPVGKRLQQELMTLMMSGDKGISAFPESDNLFKWVGTIHGAAGTVYEDLRYKLSLEFPSGYPYNAPTVKFLTPCYHPNVDTQGNICLDILKEKWSALYDVRTILLSIQSLLGEPNIDSPLNTHAAELWKNPTAFKKYLQETYSKQVTSQEP
notes: also called the E2 for APC/C in mitosis
In the case of B1, the binding result with Parkin (endogenous) is reported as “no binding”.

B2: Parkin RING1 domain (other, UniProt O60260 238-293, looked up, not shown: small tags and cut ends)
chain: CITCTDVRSPVLVFQCNSRHVICLDCFHLYCVTRLNDRQFVHDPQLGYSLPCVAGC
notes: domain: RING1
B2: the binding result in the assay with Cdh1 is “no binding”.

B3: Parkin S378A (enzyme, UniProt O60260 1-465, looked up, not shown: large carriers)
chain: MIVFVRFNSSHGFPVEVDSDTSIFQLKEVVAKRQGVPADQLRVIFAGKELRNDWTVQNCDLDQQSIVHIVQRPWRKGQEMNATGGDDPRNAAGGCEREPQSLTRVDLSSSVLPGDSVGLAVILHTDSRKDSPPAGSPAGRSIYNSFYVYCKGPCQRVQPGKLRVQCSTCRQATLTLTQGPSCWDDVLIPNRMSGECQSPHCPGTSAEFFFKCGAHPTSDKETSVALHLIATNSRNITCITCTDVRSPVLVFQCNSRHVICLDCFHLYCVTRLNDRQFVHDPQLGYSLPCVAGCPNSLIKELHHFRILGEEQYNRYQQYGAEECVLQMGGVLCPRPGCGAGLLPEPDQRKVTCEGGNGLGCGFAFCRECKEAYHEGECAAVFEASGTTTQAYRVDERAAEQARWEAASKETIKKTTKPCPRCHVPVEKNGGCMHMKCPQPQCRLEWCWNCGCEWNRVCMGDHWFDV
notes: Transfected construct, IP-immunoblot with or without nocodazole
Turning to B3, in the assay with Cdc20, the binding result is “no binding”.

For the origin of these results see patent US20180344736A1 (ROCHESTER, published 2018).
